The record followed here is patent publication US20210393777A1.

In one assay the target is LDLR (human) (UniProt P01130).
Assay [1] concerns the target human PCSK9-D347Y (human) (UniProt Q8NBP7). The experiment in a line: cell-based or functional assay.

Chain of LDLR (human) (P01130 22-860): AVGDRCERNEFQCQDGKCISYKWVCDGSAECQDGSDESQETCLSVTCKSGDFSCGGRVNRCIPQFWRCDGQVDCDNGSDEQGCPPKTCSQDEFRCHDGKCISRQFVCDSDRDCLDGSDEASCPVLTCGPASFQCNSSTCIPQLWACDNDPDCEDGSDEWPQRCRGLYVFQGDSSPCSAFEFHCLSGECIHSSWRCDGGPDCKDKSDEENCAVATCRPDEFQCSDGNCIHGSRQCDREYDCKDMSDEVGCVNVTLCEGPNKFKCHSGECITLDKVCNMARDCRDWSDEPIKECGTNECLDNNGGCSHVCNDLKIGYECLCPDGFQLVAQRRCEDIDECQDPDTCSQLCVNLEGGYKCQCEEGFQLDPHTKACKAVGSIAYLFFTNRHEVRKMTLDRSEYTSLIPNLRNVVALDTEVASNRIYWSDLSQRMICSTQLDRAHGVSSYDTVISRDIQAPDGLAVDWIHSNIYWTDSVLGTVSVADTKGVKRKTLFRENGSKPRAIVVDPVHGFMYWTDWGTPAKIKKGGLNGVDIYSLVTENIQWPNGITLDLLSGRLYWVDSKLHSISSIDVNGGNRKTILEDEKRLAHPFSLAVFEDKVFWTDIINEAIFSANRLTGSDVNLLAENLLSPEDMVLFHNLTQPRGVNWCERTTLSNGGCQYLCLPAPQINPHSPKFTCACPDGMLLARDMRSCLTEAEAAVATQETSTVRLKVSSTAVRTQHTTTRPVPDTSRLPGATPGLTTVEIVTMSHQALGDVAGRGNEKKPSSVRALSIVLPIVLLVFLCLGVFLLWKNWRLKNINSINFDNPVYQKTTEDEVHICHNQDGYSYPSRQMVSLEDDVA

Consider “Cynomolgus monkey PCSK9 (from UniProt A0A7N9D9N8) (enzyme)”, for which the IC50 of the fall in RFU as PCSK9 concentration rises ('Inhibition of different PCSK9 antigen species'; binding and uptake of LDL by cells) in the assay with LDLR (human) was found to be 2.46 µg/mL.

On to JS002 (antibody), for which, in assay [1], the Biological activity (LDL uptake assay in HepG2 cells), formulation 20, 25 C, month 0 (% of reference standard) came to 104; the Biological activity (LDL uptake assay in HepG2 cells), formulation 20, 25 C, month 1 (% of reference standard) amounted to 94.2; the Biological activity (LDL uptake assay in HepG2 cells), formulation 20, 25 C, month 3 (% of reference standard) came out at 92.6; the Biological activity (LDL uptake assay in HepG2 cells), formulation 20, 25 C, month 6 (% of reference standard) is 81.1. In assay [1], this substance had a Biological activity (LDL uptake assay in HepG2 cells), formulation 28, 2-8 C, month 0 (% of reference standard) of 120; a Biological activity (LDL uptake assay in HepG2 cells), formulation 28, 2-8 C, month 1 (% of reference standard) of 106; a Biological activity (LDL uptake assay in HepG2 cells), formulation 28, 2-8 C, month 2 (% of reference standard) of 111; a Biological activity (LDL uptake assay in HepG2 cells), formulation 28, 2-8 C, month 3 (% of reference standard) of 109. In assay [1], this substance registered a Biological activity (LDL uptake assay in HepG2 cells), formulation 28, 2-8 C, month 6 (% of reference standard) of 106; a Biological activity (LDL uptake assay in HepG2 cells), formulation 28, 2-8 C, month 9 (% of reference standard) of 104; a Biological activity (LDL uptake assay in HepG2 cells), formulation 28, 2-8 C, month 12 (% of reference standard) of 109; a Biological activity (LDL uptake assay in HepG2 cells), formulation 29, 2-8 C, month 0 (% of reference standard) of 102. In assay [1], the Biological activity (LDL uptake assay in HepG2 cells), formulation 29, 2-8 C, month 1 (% of reference standard) worked out at 103; the Biological activity (LDL uptake assay in HepG2 cells), formulation 29, 2-8 C, month 2 (% of reference standard) was 97.3; the Biological activity (LDL uptake assay in HepG2 cells), formulation 29, 2-8 C, month 3 (% of reference standard) was 90.3; the Biological activity (LDL uptake assay in HepG2 cells), formulation 29, 2-8 C, month 6 (% of reference standard) worked out at 84.9. Besides, in assay [1], the Biological activity (LDL uptake assay in HepG2 cells), formulation 29, 2-8 C, month 9 (% of reference standard) came out at 103; the Biological activity (LDL uptake assay in HepG2 cells), formulation 29, 2-8 C, month 12 (% of reference standard) worked out at 97.7; the Biological activity (LDL uptake assay in HepG2 cells), formulation 30, 2-8 C, month 0 (% of reference standard) stood at 114; the Biological activity (LDL uptake assay in HepG2 cells), formulation 30, 2-8 C, month 1 (% of reference standard) was found to be 94.6. For the same substance, in assay [1], the Biological activity (LDL uptake assay in HepG2 cells), formulation 30, 2-8 C, month 2 (% of reference standard) is 96.8; the Biological activity (LDL uptake assay in HepG2 cells), formulation 30, 2-8 C, month 3 (% of reference standard) stood at 98.7; the Biological activity (LDL uptake assay in HepG2 cells), formulation 30, 2-8 C, month 6 (% of reference standard) came out at 92.3; the Biological activity (LDL uptake assay in HepG2 cells), formulation 30, 2-8 C, month 9 (% of reference standard) is 106. In assay [1], this substance gave a Biological activity (LDL uptake assay in HepG2 cells), formulation 30, 2-8 C, month 12 (% of reference standard) of 97.2; a Biological activity (LDL uptake assay in HepG2 cells), formulation 31, 2-8 C, month 0 (% of reference standard) of 122; a Biological activity (LDL uptake assay in HepG2 cells), formulation 31, 2-8 C, month 1 (% of reference standard) of 97.9; a Biological activity (LDL uptake assay in HepG2 cells), formulation 31, 2-8 C, month 2 (% of reference standard) of 83.5. Besides, in assay [1], the Biological activity (LDL uptake assay in HepG2 cells), formulation 31, 2-8 C, month 3 (% of reference standard) was determined as 107; the Biological activity (LDL uptake assay in HepG2 cells), formulation 31, 2-8 C, month 6 (% of reference standard) is 108; the Biological activity (LDL uptake assay in HepG2 cells), formulation 31, 2-8 C, month 9 (% of reference standard) turned out to be 87.8; the Biological activity (LDL uptake assay in HepG2 cells), formulation 31, 2-8 C, month 12 (% of reference standard) amounted to 102. In addition, the EC50, uptake of fluorescently labeled LDL by HepG2 cells exposed to human PCSK9-D347Y in assay [1] stood at 0.0927 µg/mL.

Turning to evolocumab (antibody), the EC50, uptake of fluorescently labeled LDL by HepG2 cells exposed to human PCSK9-D347Y in assay [1] turned out to be 0.151 µg/mL.
